Measurements reported in patent publication US20180291343.

Assays:
[1] = test system: TALEN Beta2M T01 LEFT (artificial); test: cell_activity; conditions: primary T cells, 10 ug TALEN mRNA as pair with right monomer, 3 days post electroporation; 38% at 2 ug; untransfected nearly 100% positive
[2] = test system: TALEN Beta2M T01 RIGHT (artificial); test: cell_activity; conditions: primary T cells, 10 ug TALEN mRNA as pair with left monomer, 3 days post electroporation; 38% at 2 ug; untransfected nearly 100% positive

Sequence | activity (% beta2-m negative cells) [1] | activity (% beta2-m negative cells) [2]
TGGCCTTAGCTGTGCTC (double strand) [B2M T01 target, left half-site] | 80 | –
TTCTGGCCTGGAGGCTA (double strand) [B2M T01 target, right half-site] | – | 80
